Sequences and labels used below:
B1: NM7 (peptide)
peptide: {Palmitoyl-dPEG12}-[Aib]FLFRPRN[Aib]-NH2
B2: NM4A (peptide)
peptide: {Ida^NHPal}-[Aib]FLFRPRN-NH2
B3: NM1 (peptide)
peptide: Ac-FLFRPRN-NH2
B4: NM3 (peptide)
peptide: Palmitoyl-[Aib]FLFRPRN-NH2
SMILES: CCCCCCCCCCCCCCCC(=O)NC(C)(C)C(=O)N[C@@H](Cc1ccccc1)C(=O)N[C@@H](CC(C)C)C(=O)N[C@@H](Cc1ccccc1)C(=O)N[C@@H](CCCNC(=N)N)C(=O)N1CCC[C@H]1C(=O)N[C@@H](CCCNC(=N)N)C(=O)N[C@@H](CC(N)=O)C(N)=O
B5: NM5 (peptide)
peptide: [Aib]FLFRPRN[Aib]-NH2
modifications: N-terminus assumed
SMILES: CC(C)C[C@H](NC(=O)[C@H](Cc1ccccc1)NC(=O)C(C)(C)N)C(=O)N[C@@H](Cc1ccccc1)C(=O)N[C@@H](CCCNC(=N)N)C(=O)N1CCC[C@H]1C(=O)N[C@@H](CCCNC(=N)N)C(=O)N[C@@H](CC(N)=O)C(=O)NC(C)(C)C(N)=O
B6: NM4A-Nic (peptide)
peptide: {Nic-Ida^NHPal}-[Aib]FLFRPRN-NH2
B7: NM8 (peptide)
peptide: C[Ahx]FLFRPRN[Ahx]C-NH2
modifications: cysteine pairing not given here
B8: NM16 (peptide)
peptide: C[Ahx]FLFR[Tic]RN[Ahx]C-NH2
modifications: linker 1-11 via PalS‑X
B9: NM2 (peptide)
peptide: [Aib]FLFRPRN-NH2
modifications: N-terminus assumed
SMILES: CC(C)C[C@H](NC(=O)[C@H](Cc1ccccc1)NC(=O)C(C)(C)N)C(=O)N[C@@H](Cc1ccccc1)C(=O)N[C@@H](CCCNC(=N)N)C(=O)N1CCC[C@H]1C(=O)N[C@@H](CCCNC(=N)N)C(=O)N[C@@H](CC(N)=O)C(N)=O
B10: human neuromedin U (peptide)
peptide: FRVDEEFQSPFASQSRGYFLFRPRN-NH2
B11: NM10 (peptide)
peptide: C[Ahx]FLFR[Tic]RN[Ahx]C-NH2
modifications: cysteine pairing not given here
B12: NM4 (peptide)
peptide: Palmitoyl-[dPEG12][Aib]FLFRPRN-NH2
B13: NM9 (peptide)
peptide: C[Ahx]FLFR[Oic]RN[Ahx]C-NH2
modifications: cysteine pairing not given here

Bridges are numbered along the chain shown (N, C = ends). Where no end group is shown, it is not given here. [ ]: non-standard residue; d: D form. The star is where a group is joined. PalS‑X = 3,5-bis(methyl-S-cysteinyl)-1-(methyl-S-palmityl)-benzene joining the two Cys; Ida^NHPal = iminodiacetic acid mono-N-palmityl amide, CCCCCCCCCCCCCCCCNC(=O)CNCC(=O)*; dPEG12 = 40-amino-4,7,10,13,16,19,22,25,28,31,34,37-dodecaoxotetradecanoic acid; Oic = O=C(O)[C@@H]1C[C@@H]2CCCC[C@@H]2N1; Palmitoyl = CCCCCCCCCCCCCCCC(=O)*; Tic = O=C(O)[C@@H]1Cc2ccccc2CN1; Aib = CC(C)(N)C(=O)O; Ahx = NCCCCCC(=O)O

The target of the first assay is T1, human neuromedin U receptor NMUR1 (human, UniProt Q9HB89 1-426).
T1 sequence (looked up): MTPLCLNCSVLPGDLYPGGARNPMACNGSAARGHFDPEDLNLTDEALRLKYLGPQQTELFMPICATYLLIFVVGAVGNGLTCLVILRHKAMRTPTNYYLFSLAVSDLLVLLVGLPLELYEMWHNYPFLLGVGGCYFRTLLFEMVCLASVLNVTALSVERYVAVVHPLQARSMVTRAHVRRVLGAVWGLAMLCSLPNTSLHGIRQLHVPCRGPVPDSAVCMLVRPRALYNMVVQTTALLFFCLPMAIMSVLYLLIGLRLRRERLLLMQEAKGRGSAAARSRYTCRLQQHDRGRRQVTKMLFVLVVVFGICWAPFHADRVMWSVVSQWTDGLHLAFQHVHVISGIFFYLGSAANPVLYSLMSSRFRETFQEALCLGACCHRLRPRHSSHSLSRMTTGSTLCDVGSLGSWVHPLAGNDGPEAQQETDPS
The experiment in a line: cell-based or functional assay.
With B1, the “NMUR1 EC50 [nM], calcium mobilization assay” value came out at 170 nM.

Take B2: the “NMUR1 EC50 [nM], calcium mobilization assay” value worked out at 7.41 nM.

Consider B3, for which the “NMUR1 EC50 [nM], calcium mobilization assay” value was found to be 0.58 nM.

Take B4: the “NMUR1 EC50 [nM], calcium mobilization assay” value is 331 nM.

On to B5, for which the “NMUR1 EC50 [nM], calcium mobilization assay” value worked out at 58.9 nM.

As to B6, the “NMUR1 EC50 [nM], calcium mobilization assay” value came out at 43.6 nM.

As to B7, the “NMUR1 EC50 [nM], calcium mobilization assay” value was 186 nM.

On to B8, for which the “NMUR1 EC50 [nM], calcium mobilization assay” value was found to be 3980 nM.

With B9, the “NMUR1 EC50 [nM], calcium mobilization assay” value was 0.63 nM.

For B10, the “NMUR1 EC50 [nM], calcium mobilization assay” value worked out at 1.12 nM.

Take B11: the “NMUR1 EC50 [nM], calcium mobilization assay” value stood at 3980 nM.

As to B12, the “NMUR1 EC50 [nM], calcium mobilization assay” value was found to be 1.51 nM.

Regarding B13, the “NMUR1 EC50 [nM], calcium mobilization assay” value is 1410 nM.

The target in the next assay is T2, human neuromedin U receptor NMUR2 (human, UniProt Q9GZQ4 1-415).
T2 construct: whole, on cells; also called neuromedin U 2 receptor; HEK-NMU2
T2 sequence (Q9GZQ4 whole entry): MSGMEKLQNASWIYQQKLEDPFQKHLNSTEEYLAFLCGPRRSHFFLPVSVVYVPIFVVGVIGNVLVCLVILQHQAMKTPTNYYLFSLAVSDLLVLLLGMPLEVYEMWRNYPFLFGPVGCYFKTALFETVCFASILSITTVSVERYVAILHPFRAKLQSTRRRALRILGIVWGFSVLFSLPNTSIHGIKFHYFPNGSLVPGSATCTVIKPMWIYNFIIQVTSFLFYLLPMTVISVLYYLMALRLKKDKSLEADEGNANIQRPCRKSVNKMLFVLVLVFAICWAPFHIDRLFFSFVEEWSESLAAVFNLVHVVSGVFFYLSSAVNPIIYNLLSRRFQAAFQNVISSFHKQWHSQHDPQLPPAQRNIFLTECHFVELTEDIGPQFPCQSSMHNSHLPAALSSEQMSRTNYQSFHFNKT
The experiment in a line: told from the calcium mobilization assay on HEK293 cells expressing the receptor; no direct binding assay. As for the experimental part:
To test whether neuromedin U can be modified/derivatized to yield truncated bioactive compound(s) that may be useful as therapeutics, we synthesized a small library (25 peptides) of hNMU analogs utilizing various stabilization protocols, including: cyclization, lipidation, introduction of α,α-disubstituted and N-methylated amino acids, retro-inverso-approach, and combination of such (see Table 1). Subsequently all analogues were tested against human neuromedin U receptors (NMUR1 and NMUR2) in calcium mobilization assay (collaboration with Dr Gary Willars, University of Leicester, UK).
HEK293 cells expressing either the neuromedin U 1 receptor or neuromedin U 2 receptor (HEK-NMU1 and HEK-NMU2 respectively) were grown to approximately 90% confluence in ELISA strip plates (96-well format) pre-coated with poly-D-lysine (0.1% w/v) and loaded for 45 min at 37° C. with 2 iM fluo-4-AM in Krebs'-HEPES buffer with bovine serum albumin (KHB-BSA; composition: 10 mM HEPES; 4.2 mM NaHCO₃; 11.7 mM D-glucose; 1.18 mM MgSO₄.7H₂O; 1.18 mM KH₂PO₄; 4.69 mM KCl; 118 mM NaCl; 1.3 mM CaCl₂.2H₂O; 0.1% (w/v) BSA; pH 7.4). Monolayers were then washed and equilibrated for 5 min at 37° C. in 100 il KHB-BSA for subsequent recording of fluorescence as an index of intracellular [Ca²⁺] ([Ca²⁺]ᵢ) using a microplate reader (NOVOstar; BMG LABTECH, Aylesbury, U.K.). […]
For the molecule B12, the binding result is “binds”.

Source of the values: patent US20170037103A1 (University of California, published 2017).
